Assay results taken from US20030082525A1, “Five-Helix protein” (priority 1999, published 2003).

Tests used:
[1] = biological target: His-tagged C-peptide C37-H6 (C-peptide region of gp41) (Human immunodeficiency virus type 1 group M subtype B, UniProt P04578); settings: 150 μM C34 added to 16 μM 5-Helix and 30 μM C37-H6
Description: The solution was added to 10 ml of Ni-NTA agarose and incubated at room temperature for 10 minutes. After the unbound supernatant was removed, the beads were washed twice with 1 ml TBS and then eluted with 500 mM imidazole. The Ni-bound and unbound samples were run on a 16.5% Tris-Tricine polyacrylamide gel (Biorad) and stained with Gel-code Blue (Pierce).

[2] = system: HIV-1 envelope-mediated membrane fusion (CHO cells expressing gp160 and Tat with HELA cells expressing CD4 and coreceptors); test: Cell-cell fusion assay (syncytia formation); assay type: cell-based; settings: 200 nM 5-Helix or 6-Helix mixed with C34 at 100, 166, 190 and 210 nM
Description: Assays were carried out to assess the ability of 5-Helix to interact with the C-region of gp41 and inhibit function of the fusion protein. This inhibition of membrane fusion by 5-Helix and 6-Helix was assessed using a cell-based assay. Proteins 5-Helix and 6-Helix are serially diluted in modified DMEM media with 5% FCS and aliquoted into slide chambers. HELA cells (4×10^4) expressing CD4 and coreceptors and containing a β-galactosidase gene under the control of the Tat promoter are added. CHO cells (2×10^4) expressing gp160 (precursor protein to gp120/gp41) and Tat are also added. The 400 μl miniculture is incubated at 37° C. for 8 to 24 hours; fused cells (syncytia) will transcribe and translate β-galactosidase. The cells are fixed in gluteraldehyde and exposed to X-gal/Fe solution for one hour. Syncytia that contain β-galactosidase turn blue-green. […]
All data in FIGS. 3A-3C were generated using His-tagged 5-Helix (see Example 1). […] Following two days of incubation at 37° C., the cells were harvested in […] lysis buffer (Luciferase Assay System, Promega), of which […] was analyzed per manufacturer's protocol. The IC50 values were calculated by fitting the 5-Helix titration data to a Langmuir function [normalized luciferase activity=1/(1+[5−Helix]/IC50)].

[3] = system: HIV-1 envelope-mediated membrane fusion (CHO cells expressing gp160 and Tat with HELA cells expressing CD4 and coreceptors); settings: number of syncytia; Chan et al. 1998; read-out: IC50 of C34 in cell-cell fusion assay; cited from earlier work
[4] = biological target: HIV gp41 (from gp160, strain not stated in the assay text) (HIV-1); test: cell-based or functional assay

Question: For “C34: Peptide corresponding to the C-peptide region of HIV gp41 (W628 to L661); chemically synthesized, no His-tag”, which “Competition of untagged C-peptide for 5-Helix/C37-H6 precipitation (in words)” value [1] is on record?
Answer: substantially reduces the amount of precipitated 5-Helix

Question: What about the “Syncytia formation in mixing (competition) experiments (in words)” value [2] of the same molecule?
Answer: blocks all syncytia formation

Question: What about the IC50 [3] of the same molecule?
Answer: 0.55 ± 0.03 nM

Question: For GGHTTWMEWDREINNYTSLIHSLIEESQNQQEKNEQELLGGHHHHHH (modifications not checked) [His-tagged C-peptide C37-H6], which IC50, cell-cell fusion assay [4] is on record?
Answer: 1 nM
